The source of these data is US20060099643A1, “Method for determining the regulation of xenobiotic removal” (priority 2002, published 2006).

Data set [1] addresses T1, SXR (Homo sapiens, UniProt O75469).
T1 sequence (O75469 1-434): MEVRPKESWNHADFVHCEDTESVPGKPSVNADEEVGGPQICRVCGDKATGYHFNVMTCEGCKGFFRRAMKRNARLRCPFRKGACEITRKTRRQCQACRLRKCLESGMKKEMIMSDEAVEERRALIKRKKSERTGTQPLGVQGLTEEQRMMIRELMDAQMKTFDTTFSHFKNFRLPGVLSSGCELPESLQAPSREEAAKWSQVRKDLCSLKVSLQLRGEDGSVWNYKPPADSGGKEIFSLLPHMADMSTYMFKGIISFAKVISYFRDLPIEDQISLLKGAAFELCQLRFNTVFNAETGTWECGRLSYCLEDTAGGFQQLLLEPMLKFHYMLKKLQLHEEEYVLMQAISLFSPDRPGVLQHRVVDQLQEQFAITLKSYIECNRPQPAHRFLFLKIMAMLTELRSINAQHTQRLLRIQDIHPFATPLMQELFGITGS
Description: Microplate thermal shift assay (Thermofluor) of SXR with ligands, co-activator peptide SRC1-NR2 and co-repressor peptide NCoR-1. The following applies: for ΔΔTm SRC1-NR2 / ΔTm ligand: SXR 6 μM, ligand 50 μM; for ΔΔTm SRC1-NR2: co-activator peptide SRC1-NR2 100 μM, change from the receptor-ligand ΔTm; for ΔTm ligand: average of four experiments; for Probability Agonist (statistical probability of agonist state): computed from affinities derived from ΔΔTm with co-regulator peptides (FIG. 3); for ΔTm at 100 µM: read-out: ΔΔTm NcoR1-NR2. How it is done: A 2 μL ligand solution at 2 times the final concentration was dispensed with a micropipette into a 384 well black wall Greiner plate. Then, 2 μL of the protein dye solution was dispensed on top of the ligand solution in the 384 well plate. The plates were spun to ensure mixing of the protein-dye and ligand solutions followed by layering of 1 μL of silicone oil to prevent evaporation during heating of the samples. […] The values for the co-regulators represent a change in Tm stabilization from the receptor-ligand ΔTm values.
A general note: DSF heats the sample and reads unfolding from a dye or from intrinsic fluorescence.

Data set [2] has as its target T1, SXR. The settings on record: from Ekins & Erickson, Drug Metabolism and Disposition, 30, 96-99 and references therein; cited from earlier work.
In data set [3] the target is T2, ER-α (UniProt P03372 297-554, limits assumed).
T2 construct: also called estrogen receptor alpha
T2 sequence (looked up): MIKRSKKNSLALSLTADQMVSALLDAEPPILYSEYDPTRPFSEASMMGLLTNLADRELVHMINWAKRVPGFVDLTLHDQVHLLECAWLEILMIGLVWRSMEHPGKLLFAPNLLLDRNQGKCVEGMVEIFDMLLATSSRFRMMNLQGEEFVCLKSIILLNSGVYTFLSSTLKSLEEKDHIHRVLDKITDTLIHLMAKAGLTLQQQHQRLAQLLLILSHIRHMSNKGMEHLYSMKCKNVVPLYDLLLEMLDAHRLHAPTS
Description: Thermofluor thermal shift; ER-α 8 µM, no ligand; peptide 100 µM.

Data set [4] addresses T3, ER-β (UniProt Q92731 256-505, limits assumed).
T3 construct: also called estrogen receptor beta
Description: Thermofluor thermal shift; ER-β 8 µM, no ligand; peptide 100 µM.

The target in data set [5] is T4, SXR (UniProt O75469 130-434, limits assumed).
T4 construct: also called steroid and xenobiotic receptor; steroid X receptor
T4 sequence (looked up): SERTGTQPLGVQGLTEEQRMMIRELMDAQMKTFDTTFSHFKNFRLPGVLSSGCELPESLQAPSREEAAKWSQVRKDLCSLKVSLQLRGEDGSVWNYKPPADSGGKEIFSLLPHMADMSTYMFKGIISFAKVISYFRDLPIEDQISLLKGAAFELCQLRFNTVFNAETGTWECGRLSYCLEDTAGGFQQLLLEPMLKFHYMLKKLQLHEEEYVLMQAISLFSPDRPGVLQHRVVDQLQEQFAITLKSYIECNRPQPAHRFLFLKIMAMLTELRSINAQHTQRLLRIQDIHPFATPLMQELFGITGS
The experiment in a line: Thermofluor thermal shift; SXR 6 µM, ligand free; peptide 100 µM.

The target in data set [6] is T4, SXR. The experiment in a line: Thermofluor thermal shift; SXR 6 µM with taxol 50 µM; peptide 100 µM.
Data set [7] has as its target T2, ER-α. Description: Thermofluor thermal shift; ER-α 8 µM with estrone 20 µM; peptide 100 µM.
For data set [8], the target named is T3, ER-β. Description: Thermofluor thermal shift; ER-β 8 µM with estrone 20 µM; peptide 100 µM.
Data set [9] addresses T4, SXR. Description: Thermofluor thermal shift; SXR 6 µM with cortisone 50 µM; peptide 100 µM.
In data set [10] the target is T4, SXR. Description: Thermofluor thermal shift; SXR 6 µM with estradiol 50 µM; peptide 100 µM.
In data set [11] the target is T2, ER-α. The experiment in a line: Thermofluor thermal shift; ER-α 8 µM with estradiol 20 µM; peptide 100 µM.
Data set [12] concerns the target T2, ER-α. The experiment in a line: Thermofluor thermal shift; ER-α 8 µM with tamoxifen 20 µM; peptide 100 µM.
For data set [13], the target named is T3, ER-β. Description: Thermofluor thermal shift; ER-β 8 µM with estradiol 20 µM; peptide 100 µM.
The target of data set [14] is T3, ER-β. Description: Thermofluor thermal shift; ER-β 8 µM with tamoxifen 20 µM; peptide 100 µM.
The target of data set [15] is T4, SXR. The experiment in a line: Thermofluor thermal shift; SXR 6 µM with clofibrate 50 µM; peptide 100 µM.
Data set [16] concerns the target T4, SXR. Description: Thermofluor thermal shift; SXR 6 µM with lovastatin 50 µM; peptide 100 µM.
Data set [17] has as its target T2, ER-α. Description: Thermofluor thermal shift; ER-α 8 µM with ICI-182780 20 µM; peptide 100 µM.
Data set [18] concerns the target T3, ER-β. The experiment in a line: Thermofluor thermal shift; ER-β 8 µM with ICI-182780 20 µM; peptide 100 µM.
Data set [19] has as its target T4, SXR. Description: Thermofluor thermal shift; SXR 6 µM with 4-androstene 50 µM; peptide 100 µM.
Data set [20] concerns the target T4, SXR. The experiment in a line: Thermofluor thermal shift; SXR 6 µM with androsterone 50 µM; peptide 100 µM.
The target in data set [21] is T2, ER-α. The experiment in a line: Thermofluor thermal shift; ER-α 8 µM with 2-methoxy-E2 20 µM; peptide 100 µM.
The target of data set [22] is T3, ER-β. Description: Thermofluor thermal shift; ER-β 8 µM with 2-methoxy-E2 20 µM; peptide 100 µM.
Data set [23] deals with T4, SXR. The experiment in a line: Thermofluor thermal shift; SXR 6 µM with corticosterone 50 µM; peptide 100 µM.
In data set [24] the target is T4, SXR. The experiment in a line: Thermofluor thermal shift; SXR 6 µM with hydrocortisone 50 µM; peptide 100 µM.
In data set [25] the target is T2, ER-α. Description: Thermofluor thermal shift; ER-α 8 µM with 4-OH-tamoxifen 20 µM; peptide 100 µM.
The target in data set [26] is T3, ER-β. The experiment in a line: Thermofluor thermal shift; ER-β 8 µM with 4-OH-tamoxifen 20 µM; peptide 100 µM.
The target of data set [27] is T4, SXR. The experiment in a line: Thermofluor thermal shift; SXR 6 µM with lithocholic acid 50 µM; peptide 100 µM.
The target of data set [28] is T2, ER-α. Description: Thermofluor thermal shift; ER-α 8 µM with 17-α-ethylene-E2 20 µM; peptide 100 µM.
Data set [29] addresses T3, ER-β. The experiment in a line: Thermofluor thermal shift; ER-β 8 µM with 17-α-ethylene-E2 20 µM; peptide 100 µM.
Data set [30] addresses T4, SXR. Description: Thermofluor thermal shift; SXR 6 µM with 17-α-hydroxyprogesterone 50 µM; peptide 100 µM.
The target in data set [31] is T4, SXR. The experiment in a line: Thermofluor thermal shift; SXR 6 µM with 11-α-hydroxy-progesterone 50 µM; peptide 100 µM.

T3 sequence (Q92731 256-505 limits assumed): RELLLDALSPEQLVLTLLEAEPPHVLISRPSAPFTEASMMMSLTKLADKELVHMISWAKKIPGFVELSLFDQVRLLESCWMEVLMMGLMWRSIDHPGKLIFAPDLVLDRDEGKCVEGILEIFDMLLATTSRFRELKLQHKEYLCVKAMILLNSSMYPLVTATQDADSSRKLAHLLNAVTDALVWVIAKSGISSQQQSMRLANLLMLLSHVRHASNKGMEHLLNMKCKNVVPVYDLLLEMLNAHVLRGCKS

With `C[C@]12C[C@H](O)[C@H]3[C@@H](CCC4=CC(=O)CC[C@@]43C)[C@@H]1CC[C@@H]2C(=O)CO` [Corticosterone], in [1], the Kd came to 1.32 µM, the “ΔΔTm SRC1-NR2” value turned out to be 2.7, the ΔTm ligand stood at 5 °C and the “Probability Agonist (statistical probability of agonist state)” value was found to be 0.93. The ΔTm at 100 µM in [1] amounted to 0.5 °C. The fold activation in [2] is on record as 12 fold.

For `CC[C@H](C)C(=O)O[C@H]1C[C@@H](C)C=C2C=C[C@H](C)[C@H](CC[C@@H]3C[C@@H](O)CC(=O)O3)[C@H]21` [Lovastatin], in [1], the dissociation constant Kd is 0.55 µM, the “ΔΔTm SRC1-NR2” value amounted to 3.0, the ΔTm ligand was determined as 6.3 °C and the “Probability Agonist (statistical probability of agonist state)” value is on record as 0.85. For the same compound, in data set [1], the ΔTm at 100 µM came out at 1.2 °C. In data set [2], the fold activation is recorded as 5-fold.

For the compound `CC(=O)O[C@H]1C(=O)[C@@]2(C)[C@H]([C@H](OC(=O)c3ccccc3)[C@]3(O)C[C@H](OC(=O)[C@H](O)[C@@H](NC(=O)c4ccccc4)c4ccccc4)C(C)=C1C3(C)C)[C@]1(OC(C)=O)CO[C@@H]1C[C@@H]2O` [Taxol], in data set [1], the Kd worked out at 23 µM, the “ΔΔTm SRC1-NR2” value is listed as 2.5, the ΔTm ligand was 1.3 °C and the ΔTm at 100 µM amounted to 4.7 °C. For the same compound, in data set [2], the EC50 was 5 µM.

With “co-repressor peptide NCoR-1 (from UniProt O75376 2044-2066)”, the change in Tm stabilization from the receptor-ligand ΔTm in data set [3] was 0 °C; in data set [4], -0.4 °C; in data set [7], -0.3; in data set [8], -0.3; in data set [11], 0 °C; in data set [12] it was 0.1 °C. Moreover, the change in Tm stabilization from the receptor-ligand ΔTm in data set [13] was 0 °C; in [14] it was 0.4 °C; in [17] it was -0.6; in data set [18], 0.3 °C; in data set [21], -0.7 °C; in [22], -0.7. For the same compound, the change in Tm stabilization from the receptor-ligand ΔTm in [25] is 0.1 °C; in data set [26], 0.3; in data set [28] it was -0.1 °C; in data set [29] it was -0.7. For the same compound, the ΔΔTm was 6.7 °C in [5]; 4.7 °C in data set [6]; 3.6 °C in data set [9]; 2.3 °C in [10]; 3.4 °C in data set [15]; 1.2 °C in [16]. Further, the ΔΔTm in data set [19] was 3.6 °C; in [20] it was 3.8 °C; in data set [23] it was 0.5 °C; in data set [24], 3.7 °C; in [27] it was 1.4 °C; in data set [30] it was 3.5 °C. For the same compound, in data set [31], the ΔΔTm was 1 °C.

What is called Kd is the free concentration of one partner at which half of the binding sites on the other are occupied at equilibrium, for simple one-to-one binding. By EC50 is commonly meant the concentration needed to bring the measured effect to its halfway point.
